In publication PMC3923779, “Iron Acquisition in Bacillus cereus: The Roles of IlsA and Bacillibactin in Exogenous Ferritin Iron Mobilization” (PLoS Pathogens, 2014):

B1: IlsA (Iron-regulated leucine rich surface protein type A), recombinant, without signal peptide (natural protein, Bacillus cereus strain ATCC14579, UniProt Q81G77 29-760, looked up)
chain: ALKVEANQSVAAASDRTYDTEIKIYKDQKDEPSMVSQYIKDPKVTIAAGKKIVTVTMQDSDYFQYLRIEDKNQPGVFHDVKVLSEDKRKNGTKVVQFEIGEFEKKHNMQMHILIPAIGYDHKYQVQFEIKDPTVGNKETEKPDDNSNSGNTETDNPVDNQNMITDNKLRELVNKKVFNRKDLNTPITKEDLLQVKDLFLNTNEILDYSALKYMPNLKSLTVANAKIKDPSFFANLKQLNHLALRGNEFADVTPLVKMDNLESLDLSNNKITNVAPLTEMKNVKSLFLSGNQIEDVTALAKMEQLDYLNLANNKITNVAPLSNLKNVTYLTLAGNQIEDIKPLYTLPLKDLVLTRNKVKDLSGIDQLNQLQELWIGKNEITDVTPLSKMTQLKILNLPNNELKDITPLSSLVNLQKLDLEANYISDLSPVSNLKKLVFLSFVANEIRDVRPVIELSKTAYINVQNQKVFLEETEVNKEVKVPIYEKDGEISTKIRLKSDNGTYSNGVVKWSTPGEKVYEFGVKDPFADTGIFFTGSVIQNVVESKDGNTSKEDEKTEVVEFKDVPKGHWSEEAINYLAKEKLFIGYGNGEFGFGDNITRGQVALLIQRYLKLENNLEQKTAFTDTKGNMYETAIDAVVQAGIMTGYGNGMFRPDGVLTRYEMSVVLQRVFQLKENENSAENFKDVPNGHWAKGYVKALVDNKISKGDGEGNFLGDNFVTREQYAQFLYNAIKK
notes: IlsA of Bacillus cereus strain ATCC14579, NCBI gene number Bc1331; Holo form (hemin added until saturation of 80%) in the ITC; also called Holo-IlsA; full-length IlsA; source: E. coli C600 ΔhemA, purified (Bulk GST Purification Module, eluted with PreScission Protease); produced in apo-form, hemin added to reconstitute the holo-protein
B2: recombinant mouse H-chain ferritin (natural protein, UniProt P09528 1-182, looked up)
chain: MTTASPSQVRQNYHQDAEAAINRQINLELYASYVYLSMSCYFDRDDVALKNFAKYFLHQSHEEREHAEKLMKLQNQRGGRIFLQDIKKPDRDDWESGLNAMECALHLEKSVNQSLLELHKLATDKNDPHLCDFIETYYLSEQVKSIKELGDHVTNLRKMGAPEAGMAEYLFDKHTLGHGDES
notes: mouse ferritin H-chain, recombinant homopolymer; also called MoHF; recombinant mouse homopolymer H-chain; copies: 24

Assays:
Experiment in all cases: ITC; 16 injections of 3 µl of 229 µM holo-IlsA into the cell with 1 µM ferritin; 25°C; 50 mM Tris-HCl pH 7, 150 mM NaCl, 1 mM EDTA, 1 mM DTT; model of one set of independent binding sites; apparent values
Conditions in all cases: both partners purified
[1] = target: T1, recombinant human H-chain ferritin (human, UniProt P02794 1-183)
T1 construct: human ferritin H-chain, recombinant homopolymer of 24 H-subunits; loaded with 500 Fe/shell in the iron release assay; also called HuHF; holoHuHF; copies: 24
T1 sequence (P02794 whole entry): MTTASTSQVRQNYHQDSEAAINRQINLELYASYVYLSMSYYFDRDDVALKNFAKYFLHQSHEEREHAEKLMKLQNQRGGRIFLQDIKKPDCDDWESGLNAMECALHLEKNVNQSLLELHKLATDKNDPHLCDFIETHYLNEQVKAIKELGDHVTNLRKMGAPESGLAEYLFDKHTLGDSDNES

[2] = target: T2, recombinant human heteropolymer H/L ferritin (human, UniProt P02794 1-183; P02792 1-175)
T2 construct: human ferritin H-chain in the recombinant heteropolymer; human ferritin L-chain in the recombinant heteropolymer; The results print ∼20 H-chains and 4 L-chains; also called HuH/LF; recombinant heteropolymer ferritin; copies: 20 + 4
T2 sequence (P02794 whole entry, chain 1 of 2): as the sequence (P02794 whole entry) above
T2 sequence (P02792 whole entry, chain 2 of 2): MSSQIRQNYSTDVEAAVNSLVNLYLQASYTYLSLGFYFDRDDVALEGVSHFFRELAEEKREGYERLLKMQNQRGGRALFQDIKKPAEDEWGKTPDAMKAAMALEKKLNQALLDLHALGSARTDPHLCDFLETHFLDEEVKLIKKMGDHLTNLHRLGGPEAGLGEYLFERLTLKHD

[3] = target: B2
[4] = target: T3, recombinant human L-chain ferritin (human, UniProt P02792 1-175)
T3 construct: human ferritin L-chain, recombinant homopolymer of 24 L-subunits; also called HuLF; recombinant human homopolymer L-chain; copies: 24
T3 sequence (P02792 whole entry): as the sequence (P02792 whole entry, chain 2 of 2) above

[5] = target: B1

For B1, the dH [1] was -0.982 kcal/mol, the “stoichiometry N” value [1] was 25.2 IlsA per ferritin shell and the dH [2] was -2.08 kcal/mol. For the same binder, the “stoichiometry N” value [2] was 23.8 IlsA per ferritin shell, the dH [3] was -0.801 kcal/mol and the “stoichiometry N” value [3] was 24.9 IlsA per ferritin shell. The dH [4] was -2.08 kcal/mol and the “stoichiometry N” value [4] was 23.9 IlsA per ferritin shell.

Binder B2 has a Ka [5] of 2.07e+06 M⁻¹.
